Reference: patent US20240084023A1 (NGM BIOPHARMACEUTICALS, published 2024)

Tests used:
[1] = molecular target: T1, soluble human GCGR extracellular domain (human, UniProt P47871 26-136, limits assumed); assay: Octet epitope binning; antibody in solution on GCGR ECD held by immobilized 1D2 (competitor)
T1 construct: also called soluble GCGR
Protocol: (§1) KD values for exemplary antibodies were derived using ForteBio software. Exemplary antibodies 6B5, 13G19, 14E9, 14F4, 4F8, 1G7, l A8, I H7, 1A2, 1B4, 1C1, 1H2, 1C3, and 1D2 were immobilized on biosensor tips. Soluble human GCGR extracellular domain (500 nM) was incubated with the antibodies for 3 minutes. […] The biosensor tips with bound antibody-GCGR complex were then dipped in 61B5, 5B11, or 3H-15 antibody solution and the change in signal measured as a nm shift. If the antibody in solution recognized the same epitope as the antibody immobilized on the chip surface, then <0.1 nm shift in signal (noise level of Octet) would be observed. If the antibody in solution recognized a distinct epitope relative to the immobilized antibody, an increase in signal of >0.15 nm shift would be observed. In the latter scenario, the antibody in solution could bind to the immobilized antibody-GCGR complex (presumably to a different epitope) resulting in the observed increase in signal.

[2] = molecular target: T1, soluble human GCGR extracellular domain; assay: Octet epitope binning; antibody in solution on GCGR ECD held by immobilized 1A8 (competitor)
Protocol: as §1

[3] = molecular target: T1, soluble human GCGR extracellular domain; assay: Octet epitope binning; antibody in solution on GCGR ECD held by immobilized 14E9 (competitor)
Protocol: as §1

[4] = molecular target: T1, soluble human GCGR extracellular domain; assay: Octet epitope binning; antibody in solution on GCGR ECD held by immobilized 1B4 (competitor)
Protocol: as §1

[5] = molecular target: T1, soluble human GCGR extracellular domain; assay: Octet epitope binning; antibody in solution on GCGR ECD held by immobilized 1H2 (competitor)
Protocol: as §1

[6] = molecular target: T1, soluble human GCGR extracellular domain; assay: Octet epitope binning; antibody in solution on GCGR ECD held by immobilized 6B5 (competitor)
Protocol: as §1

[7] = molecular target: T1, soluble human GCGR extracellular domain; assay: Octet epitope binning; antibody in solution on GCGR ECD held by immobilized 1G7 (competitor)
Protocol: as §1

[8] = molecular target: T1, soluble human GCGR extracellular domain; assay: Biacore SPR, captured antibody, soluble human GCGR extracellular domain as analyte
Protocol: In some experiments, supernatants were screened for binding to human GCGR using a Biacore SPR system. Briefly, anti-mouse Fc antibody (Sigma-Aldrich) was immobilized on all four flow cells of a CM5 chip using amine coupling reagents (GE Healthcare LifeSciences). Hybridoma supernatants were diluted three-fold with PBS-P buffer (PBS containing 0.005% P20) and injected for 30 seconds overflow cells 2, 3 and 4 to capture the test antibodies and using flow cell 1 as a reference. The next step was an injection of soluble human GCGR extracellular domain (100 nM in PBS-P buffer) at a flow rate of 50 μL/min and monitoring of the binding kinetics at 25° C. Kinetic data were collected over time and fit using the simultaneous global fit equation to yield affinity constants (KD values) for each antibody.

[9] = molecular target: T1, soluble human GCGR extracellular domain; assay: Octet epitope binning; antibody in solution on GCGR ECD held by immobilized 1H7 (competitor)
Protocol: as §1

[10] = molecular target: T1, soluble human GCGR extracellular domain; assay: Octet epitope binning; antibody in solution on GCGR ECD held by immobilized 1A2 (competitor)
Protocol: as §1

[11] = molecular target: full-length human GCGR on CHO cells (human, UniProt P47871 26-477); assay: cell-based or functional assay
Chain of full-length human GCGR on CHO cells (P47871 26-477): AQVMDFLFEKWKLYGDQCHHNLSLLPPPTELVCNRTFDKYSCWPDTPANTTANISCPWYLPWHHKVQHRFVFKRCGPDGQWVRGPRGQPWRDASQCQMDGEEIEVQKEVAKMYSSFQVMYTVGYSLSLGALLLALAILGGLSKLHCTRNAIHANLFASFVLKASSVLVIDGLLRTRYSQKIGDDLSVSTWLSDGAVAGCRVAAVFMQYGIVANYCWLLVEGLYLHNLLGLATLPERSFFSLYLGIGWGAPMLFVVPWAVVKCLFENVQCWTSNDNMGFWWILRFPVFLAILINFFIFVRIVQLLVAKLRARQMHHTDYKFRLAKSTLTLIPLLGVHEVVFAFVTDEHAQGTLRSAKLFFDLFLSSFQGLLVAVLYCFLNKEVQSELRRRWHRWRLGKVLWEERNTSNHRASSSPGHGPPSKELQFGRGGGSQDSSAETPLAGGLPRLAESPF

[12] = molecular target: T1, soluble human GCGR extracellular domain; assay: Octet epitope binning; antibody in solution on GCGR ECD held by immobilized 1C3 (competitor)
Protocol: as §1

[13] = molecular target: T1, soluble human GCGR extracellular domain; assay: Octet epitope binning; antibody in solution on GCGR ECD held by immobilized 1C1 (competitor)
Protocol: as §1

[14] = molecular target: T1, soluble human GCGR extracellular domain; assay: Octet epitope binning; antibody in solution on GCGR ECD held by immobilized 14F4 (competitor)
Protocol: as §1

[15] = molecular target: T1, soluble human GCGR extracellular domain; assay: Octet epitope binning; antibody in solution on GCGR ECD held by immobilized 13G9 (competitor)
Protocol: as §1

[16] = molecular target: T1, soluble human GCGR extracellular domain; assay: Octet epitope binning; antibody in solution on GCGR ECD held by immobilized 4F8 (competitor)
Protocol: as §1

T1 sequence (P47871 26-136 limits assumed): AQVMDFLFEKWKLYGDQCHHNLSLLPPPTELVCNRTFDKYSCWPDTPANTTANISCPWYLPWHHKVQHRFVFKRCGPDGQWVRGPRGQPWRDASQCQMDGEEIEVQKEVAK

B1: anti-GCGR antibody 3H5 (antibody, V domains shown)
VH: QVQLQQSGAELVKPGASVRLSCKASGNTFTNYWMHWVKQRPGQGLEWIGMIHPNSGSTHYNEKFKNKATLTVDKSSNTAYMQLSGLTSEDSAVYYCGATADYVMDYWGQGTSVTVSS
VL: DIVLTQTPLSLPVNIGDQASISCKSTKSLLNSDGFTYLDWYLQKPGQSPQLLINLVSNRFSGVPDRFSGSGSGTEFILKISRVEAEDLGVYYCFQSNFLPLTFGAGTKLELK
notes: mouse hybridoma monoclonal antibody; also called 3H-15
Shift on Octet by Antibody in Solution (nm) [1]: < 0.05 nm
Shift on Octet by Antibody in Solution (nm) [2]: < 0.05 nm
Shift on Octet by Antibody in Solution (nm) [3]: < 0.05 nm
Shift on Octet by Antibody in Solution (nm) [4]: < 0.05 nm
Shift on Octet by Antibody in Solution (nm) [5]: < 0.05 nm
Shift on Octet by Antibody in Solution (nm) [6]: < 0.05 nm
Shift on Octet by Antibody in Solution (nm) [7]: < 0.05 nm
Kd [8]: 2.2 nM
Shift on Octet by Antibody in Solution (nm) [9]: < 0.05 nm
Shift on Octet by Antibody in Solution (nm) [10]: < 0.05 nm
cAMP assay-1 IC50 [11]: 24.6 nM
Shift on Octet by Antibody in Solution (nm) [12]: < 0.05 nm
Shift on Octet by Antibody in Solution (nm) [13]: < 0.05 nm
Shift on Octet by Antibody in Solution (nm) [14]: < 0.05 nm
Shift on Octet by Antibody in Solution (nm) [15]: < 0.05 nm
Shift on Octet by Antibody in Solution (nm) [16]: < 0.05 nm
